Results: patent US20120027722A1
pKd: −log10 of the molar value.

What was measured:
[1] = target: soluble HCV E2 truncated at amino acid 661 (sE2661), His-tagged (Hepatitis C virus (isolate not stated)); experiment: SPR (BIAcore), sE2
[2] = target: soluble HCV E2 truncated at amino acid 661 (sE2661), His-tagged (Hepatitis C virus (isolate not stated)); experiment: SPR (BIAcore A100), antibody captured on anti-Fc chip, sE2 injected 1.56-50 nM, 1:1 Langmuir fit

pKd [1] | pKd [2] | Substance
7.30 |  | AP33 Fab
 | 8.10 to 8.30 | AP33 antibody (as used in Example 2)
